For assay [1], the target named is T1, RAGE V domain (UniProt Q15109 23-121, limits assumed).
T1 construct: domain: V domain
The assay can be described thus: domain mapping, Table 1.

Assay [2] deals with T2, RAGE V-C1 domains (UniProt Q15109 23-233, limits assumed).
T2 construct: domain: V-C1 domains
The assay can be described thus: domain mapping, Table 1.

In assay [3] the target is T3, RAGE-Fc (human, UniProt Q15109 23-344, limits assumed).
T3 construct: also called hRAGE; not shown: Fc part, detected with anti-hIgG Fc-specific conjugate
T3 sequence (Q15109 23-344 limits assumed): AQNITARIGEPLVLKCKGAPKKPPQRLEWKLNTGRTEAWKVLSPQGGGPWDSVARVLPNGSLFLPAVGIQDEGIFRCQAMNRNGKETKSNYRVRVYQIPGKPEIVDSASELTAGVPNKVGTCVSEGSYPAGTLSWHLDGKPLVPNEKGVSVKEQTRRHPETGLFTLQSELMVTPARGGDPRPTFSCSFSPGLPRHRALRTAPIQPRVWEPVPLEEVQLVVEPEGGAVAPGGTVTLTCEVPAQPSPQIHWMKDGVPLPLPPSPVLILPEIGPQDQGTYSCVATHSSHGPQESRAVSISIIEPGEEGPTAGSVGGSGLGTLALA
The assay can be described thus: competition ELISA, hRAGE-S100A6 interaction. (In general: ELISA stands for enzyme-linked immunosorbent assay.)

The target of assay [4] is T3, RAGE-Fc. The assay can be described thus: competition ELISA against S100A6, mAb 10 µg/mL. The procedure: (§1) For the S100A6 Competition ELISA Assay wells have been coated with S100A6 at 0.5 μg/well. Thereafter, RAGE-Fc at 10 μg/mL and competing mAb at 10 μg/mL have been pre-incubated at room temperature for 30 min. The mixture was transferred into S100A6-coated plates and incubated under agitation at room temperature for 2 hours. Bound RAGE-Fc was detected with anti-hIgG Fc-specific-POD using TMB (3, 3′, 5, 5′-Tetramethylbenzidine) at 450 nm.

Assay [5] deals with T3, RAGE-Fc. The assay can be described thus: competition ELISA, RAGE-S100A6 interaction.
The target in assay [6] is T3, RAGE-Fc. The assay can be described thus: competition ELISA, RAGE-Fc binding to coated S100A6. How it is done: as §1
For this, coating with S100A6 was carried out as detailed above. RAGE-Fc at 10 μg/mL was incubetd with competing mAb (2-fold serial dilutions starting at 100 μg/ml at room temperature for 2 hours. Binding was detected by anti IgG Fc-specific antibody peroxydase conjugate using TMB1 component HRP at 450 nm.

For assay [7], the target named is T4, sRAGE (V-C1-C2) lot LP08062 (human, UniProt Q15109 23-331, limits assumed).
T4 construct: domain: V-C1-C2; also called Human RAGE; LP08062 (Rage)
T4 sequence (Q15109 23-331 limits assumed): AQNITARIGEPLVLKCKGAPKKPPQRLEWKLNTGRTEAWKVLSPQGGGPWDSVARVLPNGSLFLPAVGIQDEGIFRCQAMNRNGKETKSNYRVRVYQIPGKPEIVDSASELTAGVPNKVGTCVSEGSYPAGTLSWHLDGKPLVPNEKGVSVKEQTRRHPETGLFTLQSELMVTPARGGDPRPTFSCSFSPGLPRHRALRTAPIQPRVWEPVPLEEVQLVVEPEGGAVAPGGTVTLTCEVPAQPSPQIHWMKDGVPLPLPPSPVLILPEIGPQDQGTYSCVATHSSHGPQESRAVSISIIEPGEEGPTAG
The assay can be described thus: SPR (Biacore), mAb captured on anti-mouse Fc, sRAGE 15 nM, Langmuir 1:1. The procedure: The assay is based on a capture assay using immobilized anti-mouse Fc IgG on CM5 chip. For immobilization of anti-Fc antibody HBS-EP was used as running buffer. Standard amine coupling to a CM5 chip was carried out at a contact time of 11 min and a flow rate of 10 μl/min. 10 mM Sodium Acetate pH 5.0 was used as immobilization buffer. The protein concentration (anti-mouse Fc, Biacore BR-1008-38) was 100 μg/mL.
For binding analysis SN anti-RAGE mAb diluted in running buffer at 1/10 (flow rate 5 μl/min) and sRAGE (V-C1-C2) lot LP08062 diluted in running buffer at 15 nM (flow rate 50 μl/min) was used as […], respectively (running buffer: HBS-P+BSA 12 mg/mL+CM Dextran 12 mg/mL and Regeneration solution: 10 mM Glycine pH 1.7). Langmuir 1:1 analysis was used as fitting model.
(In general: Surface plasmon resonance follows binding to a sensor surface in real time, without labels.)

The target of assay [8] is T5, RAGE C2 domain (UniProt Q15109 235-327, limits assumed).
T5 construct: domain: C2 domain
T5 sequence (Q15109 235-327 limits assumed): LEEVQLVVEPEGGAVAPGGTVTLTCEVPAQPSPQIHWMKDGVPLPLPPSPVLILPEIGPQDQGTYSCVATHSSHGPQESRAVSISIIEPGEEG
The assay can be described thus: domain mapping, Table 1.

Assay [9] deals with T3, RAGE-Fc. The assay can be described thus: competition ELISA, hRAGE-S100B interaction.
The target of assay [10] is T3, RAGE-Fc. The assay can be described thus: competition ELISA, RAGE-S100B interaction.
Assay [11] addresses T3, RAGE-Fc. The assay can be described thus: competition ELISA, hRAGE-HMGB1 interaction.
The target in assay [12] is T3, RAGE-Fc. The assay can be described thus: competition ELISA, RAGE-HMGB1 interaction.
Assay [13] concerns the target rat sRAGE (rat, UniProt Q63495 23-341, limits assumed). The assay can be described thus: ELISA, O.D. 450 nm, one bar per species; plate format and antibody concentration not given.
Assay [14] concerns the target mouse sRAGE (mouse, UniProt Q62151 23-340, limits assumed). Described as above.

Where “and” joins values, the source holds several entries; their conditions need not be identical. Equal entries are not always repeated.

T1 sequence (Q15109 23-121 limits assumed): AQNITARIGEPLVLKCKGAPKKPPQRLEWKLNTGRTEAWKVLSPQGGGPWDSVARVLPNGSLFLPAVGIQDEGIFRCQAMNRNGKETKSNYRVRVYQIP
Chain of mouse sRAGE (Q62151 23-340 limits assumed): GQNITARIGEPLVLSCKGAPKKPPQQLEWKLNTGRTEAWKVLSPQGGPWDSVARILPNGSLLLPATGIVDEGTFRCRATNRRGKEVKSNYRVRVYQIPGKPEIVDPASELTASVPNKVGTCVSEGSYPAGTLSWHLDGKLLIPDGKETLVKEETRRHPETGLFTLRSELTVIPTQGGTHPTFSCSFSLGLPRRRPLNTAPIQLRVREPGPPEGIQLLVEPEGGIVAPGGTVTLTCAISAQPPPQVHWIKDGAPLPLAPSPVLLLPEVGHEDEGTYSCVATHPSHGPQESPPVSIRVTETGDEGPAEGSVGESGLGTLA
Chain of rat sRAGE (Q63495 23-341 limits assumed): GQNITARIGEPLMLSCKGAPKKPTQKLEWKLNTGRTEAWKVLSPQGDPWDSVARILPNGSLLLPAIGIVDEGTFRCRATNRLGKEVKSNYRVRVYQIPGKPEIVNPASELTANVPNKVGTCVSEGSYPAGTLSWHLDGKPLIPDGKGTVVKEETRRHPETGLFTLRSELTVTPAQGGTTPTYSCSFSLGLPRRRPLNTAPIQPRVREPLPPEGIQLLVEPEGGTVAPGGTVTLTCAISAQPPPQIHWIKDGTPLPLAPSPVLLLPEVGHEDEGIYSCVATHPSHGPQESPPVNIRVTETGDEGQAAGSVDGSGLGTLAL
T2 sequence (Q15109 23-233 limits assumed): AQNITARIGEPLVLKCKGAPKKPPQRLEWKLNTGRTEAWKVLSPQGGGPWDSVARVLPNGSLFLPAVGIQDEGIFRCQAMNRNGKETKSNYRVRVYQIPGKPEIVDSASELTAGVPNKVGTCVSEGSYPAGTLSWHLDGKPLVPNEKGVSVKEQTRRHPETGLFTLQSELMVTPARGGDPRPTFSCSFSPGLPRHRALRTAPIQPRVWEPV

B1: 56 RAGE-1 (antibody, V domains shown)
VH: QVQLQQSGPELVKPGASVRISCKASGYTFTSYFIHWVKQRPGQGLEWIGWIYPGNVNTKYNEKFKDKATLTADKSSSTAYMQLSNLTSEDSAVYFCVRGQLGDYWGQGITLTVSS
VL: DIVMTQSQKFMSTSVGDRVSVTCKASQNVGINVAWYQQKPGQSPKALIYSASYRYSGVPDRFTGSGSGTDFTLIISNVQSEDLAEYFCQQYNNYPRTFGGGTKLEIK
notes: Anti-RAGE monoclonal antibody from a hybridoma, captured by anti-mouse Fc; also called LP08103; Protein 56 RAGE-1
B1: in assay [1], the binding result is given as “no binding”. For the same molecule, the binding result in assay [2] is reported as “no binding”. The molecule further returned a maximum inhibitory effect in [3] not above 50%. This molecule also registered an inhibitory effect in assay [4] of more than 20%. The molecule further registered an IC50 in [5] of 7.7 nM. Besides, the IC50 in [6] is 1.16 µg/mL and 7.73 nM. Further, in [7], the affinity, expressed as Kd, was 1.87 nM; the koff is 0.00539 s⁻¹; the kon is 2.89e+06 M⁻¹ s⁻¹.

B2: 253 RAGE-1 (antibody, V domains shown)
VH: QVQLQQSGPELVKPGASVRISCKASGYTFTDYYIHWVKQRPGQGLEWIGWIYPGNVITKYNEKFKGKATLTADKSSSTAYMQLSSLTSEDSAVYFCARYDYDYAMDYWGQGTSVTVSS
VL: DIVMSQSPSSLAVSVGEKVTMSCKSSQTLLYSSNQKNYLAWYQQKPGQSLKLLIYWASTRESGVPDRFAGSGSGTDFTLTISSVKAEDLAVYYCQQYFGYPYTFGGGTKLEIK
notes: Anti-RAGE monoclonal antibody from a hybridoma, captured by anti-mouse Fc; also called LP08127
With B2, the binding result in assay [1] is recorded as “no binding”. In addition, in assay [8], the binding result was “no binding”. In assay [9], this molecule yielded an IC50 of 0.108 µg/mL. The molecule also came in with an IC50 in assay [10] of 0.7 nM. In assay [7], this molecule returned a Kd of 0.512 nM, a koff of 0.00199 s⁻¹ and a kon of 3.89e+06 M⁻¹ s⁻¹.

B3: 152 RAGE-1 (antibody, V domains shown)
VH: DVQLQESGPDLVKPSQSLSLTCTVTGYSITSGYSWHWIRQFPGNKLEWMGYIHYSGSTNYNPSLKSRISITRDTSKNQFFLQLNSVTTEDTATYYCARGGDFAYWGQGTLVTVSA
VL: DIVLTQSPASLAVSLGQRATISCRASKSVGTSDSSYMHWYQQKPGQPPKLLIYLASNLESGVPARFSGSGSGTDFTLNIHPVEEEDAATYYCQHSRELYTFGGGTKLEIK
notes: Anti-RAGE monoclonal antibody from a hybridoma, captured by anti-mouse Fc; also called LP08104; Protein 152 RAGE-1
As to B3, the binding result in assay [8] was “no binding”. In assay [4], this molecule came in with an inhibitory effect of more than 20%. In assay [7], the Kd came out at 0.687 nM, the koff was 0.00265 s⁻¹ and the kon is 3.86e+06 M⁻¹ s⁻¹.

B4: Control XT-M4 (antibody, V domains shown)
VH: EVQLVESGGGLVQPGRSLKLSCVVSGFTFNNYWMTWIRQTPGKGLEWVASINNSGDNTYYPDSVKDRFTISRDNAKSTLYLQMNSLRSEDTATYYCTRGGDITTGFDYWGQGVMVTVSS
VL: DIQMTQSPSSMSVSLGDTITITCRASQDVGIYVNWFQQKPGKSPRRMIYRATNLADGVPSRFSGSRSGSIYSLTISSLESEDVADYHCLEFDEHPLTFGSGTKVEIK
With B4, the IC50 in [11] came out at 0.272 µg/mL; in assay [9], 0.208 µg/mL; in [12], 1.79 nM; in [10] it was 1.37 nM; in assay [5] it was 34.6 nM; in assay [6], 5.2 µg/mL.

B5: 166 RAGE-1 (antibody, V domains shown)
VH: QVQLQQSGPELVKPGTSVRISCKASGYTFTSYYIHWVKQRPGQGLEWIGWIYPGNVITNYHEKFKGKASLTADKSSSTAYMQLSSLTSEDSAVYFCAREDPFAYWGQGTLVTVSA
VL: NIMMTQSPSSLAVSAGEKVTMSCKSSQSVLYSSNQKNYLAWYQQKPGQSPKLLIYWASTRESGVPDRFTGSGSGTDFTLTISSVQAEDLAVYYCHQYLSSYTFGGGTKLEIK
notes: Anti-RAGE monoclonal antibody from a hybridoma, captured by anti-mouse Fc; also called LP08122; LP08122D
Turning to B5, the binding result was “no binding” in [1], “no binding” in [8], “no binding (tested: not given)” in [13] and “no binding (tested: not given)” in assay [14]. The IC50 amounted to 0.128 µg/mL in assay [9], 0.8 nM in [10], 55.5 nM in [5] and 8.33 µg/mL in assay [6]. For the same molecule, the maximum inhibitory effect in [3] is not above 50%. For the same molecule, the inhibitory effect in [4] was more than 20%. This molecule displayed a Kd in assay [7] of 0.234 nM. Moreover, the koff in assay [7] turned out to be 0.000758 s⁻¹. In [7], this molecule showed a kon of 3.24e+06 M⁻¹ s⁻¹.

B6: 158 RAGE-1 (antibody, V domains shown)
VH: QIQLVQSGPELKKPGETVKISCKASGYTFTDYSMHWVKQAPGKGLKWMGWINTETGEPTYADDFKGRFAFSLETSASTAYLLINNLKTEDTATYFCARDYLYYYAMDYWGQGTSVTVSS
VL: DVVLTQTPLSLPVNIGDQASISCKSTKSLLNSDGFTYLDWYLQKPGQSPQLLIYLVSNRFSGVPDRFSGSGSGTDFTLKISRVEAEDLGVYYCFQSNYLPLTFGGGTKVEIK
notes: Anti-RAGE monoclonal antibody from a hybridoma, captured by anti-mouse Fc; also called LP08105
For the molecule B6, the binding result in assay [8] is “no binding”; in assay [13], “no binding (tested: not given)”; in assay [14] it was “no binding (tested: not given)”. Besides, the IC50 was 0.29 µg/mL and 1.39 nM in assay [11]; 0.109 µg/mL in assay [9]; 1.4 nM in [12]; 0.7 nM in [10]; 45.3 nM in assay [5]; 6.79 µg/mL in [6]. The maximum inhibitory effect in [3] was not above 50%. For the same molecule, the inhibitory effect in assay [4] is more than 20%. In assay [7], the Kd turned out to be 0.629 nM. Besides, in [7], the dissociation rate constant (koff) came out at 0.00253 s⁻¹. In assay [7], the kon is 4.02e+06 M⁻¹ s⁻¹.

B7: 240 RAGE-1 (antibody, V domains shown)
VH: QIQLVQSGPELKKPGETVKISCKASGYTFTDYSMHWVKQAPGKGLKWMGWINTETGEPTYADDFKGRFAFSLETSASTAYLQINNLKNEDTATYFCARDYLYYYAMDYWGQGTSVTVSS
VL: DVVLTQTPLSLPVSIGDQASISCKSTKSLLNSDGFTYLDWYLQKPGQSPQLLIYLVSNRFSGVPDSFSGSGSGTDFTLKISRVEAEDLGVYYCFQSNYFPLTFGGGTTLEIK
notes: Anti-RAGE monoclonal antibody from a hybridoma, captured by anti-mouse Fc; also called LP08108
Regarding B7, the binding result in assay [8] is on record as “no binding”; in assay [13], “no binding (tested: not given)”; in assay [14] it was “no binding (tested: not given)”. In addition, the IC50 is 0.31 µg/mL and 2.06 nM in assay [11]; 0.123 µg/mL in [9]; 2.1 nM in [12]; 0.8 nM in assay [10]; 44.4 nM in assay [5]; 6.66 µg/mL in [6]. Besides, the maximum inhibitory effect in assay [3] was not above 50%. Also, the inhibitory effect in assay [4] was more than 20%. In assay [7], this molecule registered a Kd of 0.222 nM. In assay [7], this molecule yielded a koff of 0.000769 s⁻¹. In [7], this molecule came in with a kon of 3.47e+06 M⁻¹ s⁻¹.

B8: 164 RAGE-1 (antibody, V domains shown)
VH: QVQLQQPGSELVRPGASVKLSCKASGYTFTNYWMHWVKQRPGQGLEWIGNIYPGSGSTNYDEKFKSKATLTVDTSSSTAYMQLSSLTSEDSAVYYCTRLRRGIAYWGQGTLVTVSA
VL: NIVMTQSPKSMSMSVGERVTLSCKASENVGTYVSWYQQKPEQSPKLLIYGASNRYTGVPDRFTGSGSATDFTLTISSVQAEDLADYHCGQSYTYPYTFGGGTKLEIK
notes: Anti-RAGE monoclonal antibody from a hybridoma, captured by anti-mouse Fc; also called LP08106; Protein 164 RAGE-1
With B8, in [1], the binding result is reported as “no binding”. The binding result in assay [2] is “no binding”. In assay [7], this molecule gave a Kd of 1.13 nM, a koff of 0.00203 s⁻¹ and a kon of 1.8e+06 M⁻¹ s⁻¹.

B9: 326 RAGE-1 (antibody, V domains shown)
VH: EVKLVESGGGLVKPGGSLKLSCAASGFAFSSYDMSWVRQTPEKRLEWVATISSGGSYTSYPDSVQGRFTISRDNARNTLYLQMSSLRSEDTALYYCASSQLPPYAMDYWGQGTSVTVSS
VL: DIVMTQSQKFMSTSVGDRVSITCKASQNVGTAVAWYQQKPGQSPKLLIYSASNRYTGVPDRFTGSGSGTDFTLTISNMQSEDLADYFCQQYSSYPLLTFGAGTKLELK
notes: Anti-RAGE monoclonal antibody from a hybridoma, captured by anti-mouse Fc; also called LP08137; Protein 326 RAGE-1
Take B9: the binding result in assay [1] is given as “no binding”; in [8] it was “no binding”; in assay [13], “no binding (tested: not given)”; in assay [14] it was “no binding (tested: not given)”. Also, the IC50 in assay [9] is 0.097 µg/mL and 0.64 nM; in assay [10], 0.6 nM. Further, the Kd in assay [7] was found to be 0.596 nM. Also, the koff in assay [7] was 0.00171 s⁻¹. Also, the kon in assay [7] was 2.87e+06 M⁻¹ s⁻¹.

What is called IC50 is the concentration at which inhibition is half-maximal. Higher therefore signals weaker potency. In general, Kd refers to the constant that tells how readily two partners part at equilibrium. Lower therefore signals tighter binding. In general, koff refers to a measure of how fast the partners let go of each other. Usually kon stands for the rate constant with which the complex forms.

The values above are taken from patent US20120282637A1 (Sanofi, published 2012).
